± gives the standard deviation of the averaged measurements.

The data set deals with ATP. The experiment in a line: switch fluorescence ratio, 500 uM ATP over buffer (Cy3 cluster intensity, sum of 5 cycles each) (fold (ratio)); higher = stronger signal-on switching upon ATP binding; sequences stand for … in TCGTCGGCAGCGTCAGATGTGTATAAGAGACAGTTTTTTTTTTTTTTTTTTTTTTTTT…TC. As to conditions: aptamer strand: ATP DNA aptamer (quencher-CACCTGGGGGAGTATTGCGGAGGAAGG + anchor), 100 nM annealed; ATP concentration: 500 uM. The procedure, abridged:
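Clusters with intensities outside 100-1000 RFU were excluded. The remaining Cy3-labelled switching-strand clusters on a modified Illumina MiSeq flow-cell had been annealed to 100 nM quencher-labelled ATP aptamer and imaged in selection buffer, then after 15 min with 500 uM ATP at 22 °C, for five cycles separated by NaOH stripping and re-annealing. The fluorescence ratio, averaged per switch-domain sequence, is each cluster's summed target-cycle Cy3 intensity over its summed buffer-cycle Cy3 intensity.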
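Note: ATP exposure 15 min at 22 °C before imaging.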

Consider TTGCATATAG, for which the switch fluorescence ratio turned out to be 1.3 ± 0.065.

As for TTGCATCTTG, the switch fluorescence ratio stood at 1.01 ± 0.033.

TTGCATGATG: the switch fluorescence ratio turned out to be 0.9611 ± 0.0076.

Turning to TTGCATGGGC, the switch fluorescence ratio is 1.05 ± 0.063.

On to TTGCATTTAA, for which the switch fluorescence ratio came to 1.0047 ± 0.00053.

On to TTGCCAAGGT, for which the switch fluorescence ratio is 1 ± 0.013.

As to TTGCCACGGA, the switch fluorescence ratio worked out at 1.07 ± 0.051.

Regarding TTGCCGGCTA, the switch fluorescence ratio amounted to 1.038 ± 0.0057.

In the case of TTGCCTCGTT, the switch fluorescence ratio was determined as 1.05 ± 0.023.

Regarding TTGCCTGAAA, the switch fluorescence ratio worked out at 1 ± 0.019.

Consider TTGCCTGTGT, for which the switch fluorescence ratio stood at 1.039 ± 0.0012.

With TTGCCTGTTT, the switch fluorescence ratio was determined as 0.967 ± 0.049.

With TTGCGAAATC, the switch fluorescence ratio turned out to be 1.44 ± 0.58.

As to TTGCGACGCT, the switch fluorescence ratio turned out to be 1.17 ± 0.13.

On to TTGCGAGTTG, for which the switch fluorescence ratio was determined as 1 ± 0.021.

Turning to TTGCGCGGAC, the switch fluorescence ratio came to 2.34 ± 1.5.

Turning to TTGCGCGGGA, the switch fluorescence ratio worked out at 1.02 ± 0.072.

Turning to TTGCGGAGGA, the switch fluorescence ratio was determined as 1.01 ± 0.043.

On to TTGCGGCTGG, for which the switch fluorescence ratio came out at 0.974 ± 0.031.

In the case of TTGCGGGGGG, the switch fluorescence ratio came to 1.03 ± 0.032.

For the sequence TTGCGGGTGG, the switch fluorescence ratio stood at 1.01 ± 0.028.

In the case of TTGCGTATTT, the switch fluorescence ratio is 0.993 ± 0.033.

In the case of TTGCGTGTGG, the switch fluorescence ratio stood at 1.048 ± 0.0046.

As for TTGCGTTGTG, the switch fluorescence ratio was 0.992 ± 0.041.

Consider TTGCTAATCA, for which the switch fluorescence ratio came to 1 ± 0.04.

TTGCTAGGGC: the switch fluorescence ratio was determined as 1.01 ± 0.033.

Regarding TTGCTCATAA, the switch fluorescence ratio was 1 ± 0.032.

As to TTGCTCGTGG, the switch fluorescence ratio is 1.028 ± 0.0047.

TTGCTGGATT: the switch fluorescence ratio amounted to 1 ± 0.033.

TTGCTGGCCG: the switch fluorescence ratio is 1.03 ± 0.026.

Regarding TTGCTGGCGG, the switch fluorescence ratio stood at 1 ± 0.038.

TTGCTGGGCG: the switch fluorescence ratio turned out to be 0.995 ± 0.026.

For TTGCTGGGGT, the switch fluorescence ratio is 1.01 ± 0.044.

With TTGCTGTACG, the switch fluorescence ratio came out at 1.04 ± 0.021.

As for TTGCTGTGAG, the switch fluorescence ratio came to 0.9762 ± 0.0012.

TTGCTTCAAT: the switch fluorescence ratio was determined as 0.983 ± 0.045.

In the case of TTGCTTGCGT, the switch fluorescence ratio is 1.01 ± 0.03.

Regarding TTGCTTGTGT, the switch fluorescence ratio came out at 0.9983 ± 0.0049.

As to TTGCTTTAAT, the switch fluorescence ratio turned out to be 0.988 ± 0.019.

Consider TTGGAAAAAG, for which the switch fluorescence ratio amounted to 1.1 ± 0.18.

Consider TTGGAACGGG, for which the switch fluorescence ratio was determined as 1.02 ± 0.011.

TTGGAAGCAT: the switch fluorescence ratio stood at 1.01 ± 0.036.

TTGGAAGTAG: the switch fluorescence ratio stood at 0.9688 ± 0.0029.

Consider TTGGAAGTTC, for which the switch fluorescence ratio amounted to 1 ± 0.019.

For the sequence TTGGAATTCA, the switch fluorescence ratio was 1.02 ± 0.071.

As to TTGGAATTCT, the switch fluorescence ratio worked out at 1.04 ± 0.081.

On to TTGGAATTGT, for which the switch fluorescence ratio came out at 1.005 ± 0.0075.

Regarding TTGGACATTT, the switch fluorescence ratio amounted to 0.999 ± 0.013.

Take TTGGACCCAT: the switch fluorescence ratio was found to be 1.02 ± 0.02.

In the case of TTGGACGCAC, the switch fluorescence ratio was 2.08 ± 0.12.

With TTGGACGGGT, the switch fluorescence ratio was 1.022 ± 0.008.

Take TTGGACTAAA: the switch fluorescence ratio worked out at 1.06 ± 0.011.

For TTGGACTACT, the switch fluorescence ratio was 0.984 ± 0.035.

For TTGGACTGGG, the switch fluorescence ratio is 0.948 ± 0.082.

TTGGAGGCGG: the switch fluorescence ratio was 0.984 ± 0.066.

Consider TTGGAGGCTC, for which the switch fluorescence ratio came to 1.03 ± 0.024.

For the sequence TTGGAGGTGG, the switch fluorescence ratio turned out to be 0.959 ± 0.031.

Turning to TTGGATAAAC, the switch fluorescence ratio was found to be 1.03 ± 0.053.

In the case of TTGGATGTGT, the switch fluorescence ratio stood at 0.9407 ± 0.001.

Take TTGGCATGGG: the switch fluorescence ratio amounted to 0.99 ± 0.015.

For TTGGCCACGC, the switch fluorescence ratio stood at 1.018 ± 0.0056.

Take TTGGCCGGGG: the switch fluorescence ratio was 1.01 ± 0.029.

As for TTGGCCTATA, the switch fluorescence ratio came to 0.973 ± 0.021.

In the case of TTGGCGGGGT, the switch fluorescence ratio came out at 1.04 ± 0.081.

As to TTGGCGTCGT, the switch fluorescence ratio amounted to 0.995 ± 0.043.

On to TTGGCTATTT, for which the switch fluorescence ratio amounted to 0.9981 ± 0.0075.

(Values after the supplement of paper PMC10126150.)
